Experimental data taken from the supplement of paper PMC9732359.
± gives the uncertainty stated by the source.

Assay: protein stability index of a GFP-peptide fusion (yeast GPS) (PSI 1-4); higher = more stable; sorted into four equal gates, so the index is relative within each strain
Summary of the method: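 Yeast carrying a pooled library were grown to mid-log phase in leucine-free medium. Each library plasmid expresses Cherry and has a tiled 17-residue yeast protein peptide fused downstream of GFP. Cells were sorted into four equal gates by GFP/Cherry ratio, and plasmids from each gate were PCR-amplified, Illumina-sequenced and assigned to strains by barcode. Summing, across gates, the read frequency times the gate number gave each peptide's protein stability index.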

Sequence | protein stability index (doa10∆) | protein stability index (pdr5∆) | protein stability index (san1∆) | protein stability index (ubr1∆)
RRLLNLYNDNNKNNNNR [SWI1] | 3.11 ± 0.12 | 2.86 ± 0.089 | 2.22 ± 0.16 | 2.99 ± 0.058
FILIPLYKIFSYALSME [SNU114] | 1.65 ± 0.042 | 1.45 ± 0.037 | 1.46 ± 0.075 | 1.68 ± 0.031
QMIDTSILPTRDDLFVR [NUT1] | 2.86 ± 0.06 | 2.88 ± 0.062 | 2.73 ± 0.08 | 2.33 ± 0.044
KNLKHIDVTFTKVNNQL [RPL9A] | 2.79 ± 0.057 | 2.58 ± 0.053 | 2.52 ± 0.07 | 2.62 ± 0.045
LFKPLNKTLTLDLKECY [ARP7] | 2.4 ± 0.067 | 2.14 ± 0.068 | 1.89 ± 0.15 | 2.27 ± 0.12
APAYAWSHNGPFETFDH [CYT1] | 2.19 ± 0.098 | 2.64 ± 0.099 | 1.75 ± 0.16 | 2.78 ± 0.1
RVVYLKHLEDNTLLISG [RPL6A] | 2.63 ± 0.11 | 2.62 ± 0.093 | 1.81 ± 0.17 | 2.23 ± 0.059
ILQYFEKWISSKNSKLS [SIR3] | 2.8 ± 0.15 | 1.48 ± 0.087 | 2 ± 0.26 | 1.27 ± 0.083
CRYSCLALERMVPKRST [YCS4] | 2.71 ± 0.27 | – | – | 2.02 ± 0.18
INAVLVNDNDERAARVV [RPO31] | 2.88 ± 0.12 | 3.04 ± 0.13 | 2.94 ± 0.097 | 2.56 ± 0.084
SLKTKLNSNIRAGVTIP [SNF5] | 2.6 ± 0.077 | 2.72 ± 0.051 | 2.36 ± 0.066 | 2.63 ± 0.047
NLPGNITVVLGVNGYIW [RRP4] | 2.01 ± 0.15 | 2.64 ± 0.093 | 1.67 ± 0.12 | 2.5 ± 0.066
MSMSSTVIKFRAGVCEY [RPN13] | – | 2.58 ± 0.18 | 2.22 ± 0.13 | –
LKRRQVIEQCYLKFIPL [SRB8] | 1.91 ± 0.045 | 1.98 ± 0.048 | 1.52 ± 0.082 | 1.83 ± 0.032
IDTLLYLMTYPQQPMVK [RET1] | 1.52 ± 0.097 | 2.09 ± 0.12 | 2.33 ± 0.13 | 1.53 ± 0.056
ANIQLDFPELKPYKQVK [FAS2] | 3.16 ± 0.1 | 2.85 ± 0.094 | 2.97 ± 0.11 | 3.17 ± 0.077
SSTTGMSYVVRILSTLD [RPT3] | 2.31 ± 0.082 | 2.42 ± 0.084 | 2.49 ± 0.053 | 2.91 ± 0.066
NLTSEIEDLRADINSNR [YOR098C/NUP1] | 2.98 ± 0.27 | 3.07 ± 0.12 | 2.83 ± 0.12 | 3.03 ± 0.084
RNVVEDINQAKDFIENV [BRN1] | 3.25 ± 0.13 | 3.31 ± 0.097 | 3.24 ± 0.078 | 3.25 ± 0.072
LIMALLQFRPAPMYILD [SMC2] | 2.47 ± 0.15 | 1.12 ± 0.059 | 1.32 ± 0.26 | 1.06 ± 0.046
QILSTVVEDKPLLSKKE [SMB1] | 1.15 ± 0.061 | 1.19 ± 0.042 | 1.19 ± 0.12 | 1.48 ± 0.054
IGVRCYEAYPNTSLPPS [FAS1] | 2.29 ± 0.036 | 2.33 ± 0.032 | 2.59 ± 0.034 | 2.54 ± 0.028
DDAMEINGEDPANNHQL [SMX2] | 3.38 ± 0.076 | 3.02 ± 0.086 | 3.3 ± 0.047 | 3.44 ± 0.071
FNSVQKKSRSNLSQEND [YAR002W/NUP60] | 2.81 ± 0.09 | 2.85 ± 0.071 | 2.49 ± 0.1 | 3.12 ± 0.12
VIANPKGEMKGSAITGP [RPL23A] | 3.19 ± 0.13 | 3.22 ± 0.2 | 2.64 ± 0.14 | 2.91 ± 0.23
VDESLLSTLPAGKSLVS [QCR2] | 2.65 ± 0.15 | 2.81 ± 0.22 | 1.85 ± 0.26 | 2.41 ± 0.13
TDYARAKNRILASKIKQ [RRI1] | 1.93 ± 0.097 | 2.07 ± 0.072 | 1.94 ± 0.091 | 1.91 ± 0.063

Sequence | protein stability index (doa10∆) | protein stability index (pdr5∆) | protein stability index (san1∆) | protein stability index (ubr1∆)
MLSKTKVYYFQGGNNEL [RPL30] | 2.87 ± 0.15 | 3.17 ± 0.26 | 2.99 ± 0.14 | 3.4 ± 0.25
EANGATSFDRTKKTITP [RPL3] | 3.12 ± 0.15 | 2.91 ± 0.15 | 2.74 ± 0.12 | 3.17 ± 0.27
KSHNAHVRCGTAFALGI [RPN2] | 1.72 ± 0.27 | 2.41 ± 0.1 | 2.18 ± 0.14 | 1.8 ± 0.075
SHAIRLGNGVACDPSEI [RGR1] | 1.52 ± 0.088 | 1.64 ± 0.089 | 2.91 ± 0.17 | 2.16 ± 0.15
SSQKDGNDFKFNYQGDE [REC8] | 3.41 ± 0.067 | 3.45 ± 0.072 | 3.43 ± 0.051 | 3.4 ± 0.058
NLQKIDKDSEELDSKTR [MED4] | 2.73 ± 0.091 | 2.98 ± 0.071 | 2.94 ± 0.078 | 3.09 ± 0.053
EDEVKVEGPKFTIDAKP [YLR335W/NUP2] | 3.54 ± 0.15 | 3.52 ± 0.2 | 3.45 ± 0.071 | –
EVAKRLVELMFIRSTNS [FAS1] | 1.79 ± 0.067 | 2.14 ± 0.069 | 2.5 ± 0.085 | 1.49 ± 0.042
DARSSRNFSLAIIDKNT [PRE4] | 3.02 ± 0.075 | 2.78 ± 0.083 | 2.98 ± 0.05 | 2.89 ± 0.056
VRIMKAKRNLPHTTLVN [CDC53] | 1.9 ± 0.093 | 2.23 ± 0.07 | 1.53 ± 0.16 | 1.77 ± 0.072
PSELNQLKMVNERELNV [RPC82] | 3.14 ± 0.13 | 2.94 ± 0.15 | – | –
HNGREGSIEEPELNVSL [MCD1] | 3.31 ± 0.3 | 3.5 ± 0.15 | 3.07 ± 0.12 | 3.37 ± 0.071
SPEQIDASPDSLEALID [YCS4] | 2.92 ± 0.054 | 2.88 ± 0.049 | 2.94 ± 0.044 | 3.05 ± 0.041
ACVPLLPPPEDVAFLKT [RPN1] | 2.65 ± 0.053 | 2.4 ± 0.053 | 2.79 ± 0.043 | 2.65 ± 0.048
AAGTSQARTATLKYICA [RPC10] | 2.16 ± 0.15 | 2.07 ± 0.11 | 1.72 ± 0.11 | 2.24 ± 0.094
KENDTVMNTKLLQEGGS [ESC2] | 3.16 ± 0.12 | 3.2 ± 0.092 | 3.04 ± 0.078 | 3.21 ± 0.076
THNDIDSTAVALEEGLN [YJL039C/NUP192] | 2.78 ± 0.096 | 3.05 ± 0.047 | 2.53 ± 0.082 | 2.56 ± 0.06
KDQDSQIELSCNERVPL [SRP72] | 3.08 ± 0.08 | 3.12 ± 0.097 | 2.83 ± 0.056 | 3.01 ± 0.059
EEEVDIDMDKLNTVLIA [RRP43] | 3.35 ± 0.091 | 3.32 ± 0.095 | 3.02 ± 0.077 | 2.89 ± 0.068
QEEGSFEFGNMKATSNT [FAS2] | 3.28 ± 0.05 | 3.38 ± 0.07 | 3.14 ± 0.056 | 3.17 ± 0.042
PLSNIKALLFFNNEKET [RPN12] | 1.46 ± 0.056 | 1.4 ± 0.062 | 1.2 ± 0.088 | 1.13 ± 0.053
GASNGDDSNGGNGEGLG [BRN1] | 3.42 ± 0.14 | 2.83 ± 0.23 | 3.68 ± 0.16 | 3.19 ± 0.084
DNWRREFLKWTPNVNVL [ISW2] | 1.46 ± 0.098 | 2.42 ± 0.12 | – | 2.31 ± 0.07
GVSIENENKVIIELPNE [SRB4] | 2.77 ± 0.1 | 3.02 ± 0.1 | 3.06 ± 0.055 | 2.6 ± 0.06
TKYTDDMATGSNDTTAF [SRB8] | 3.04 ± 0.086 | 3.14 ± 0.087 | 3.45 ± 0.057 | 3.29 ± 0.058
EDKVFASKGRTKIDMPI [BRN1] | – | – | 2.59 ± 0.26 | –
HSFIKMLQMKGKLLRNY [SIR2] | 2.19 ± 0.09 | 2.4 ± 0.12 | 2.27 ± 0.16 | 2.15 ± 0.067
